Source: PMC11327020

Molecular target: CXCR4 on THP-1 cells (human (endogenous in THP-1)) (UniProt P61073)
Chain of UniProt P61073 (P61073 whole entry): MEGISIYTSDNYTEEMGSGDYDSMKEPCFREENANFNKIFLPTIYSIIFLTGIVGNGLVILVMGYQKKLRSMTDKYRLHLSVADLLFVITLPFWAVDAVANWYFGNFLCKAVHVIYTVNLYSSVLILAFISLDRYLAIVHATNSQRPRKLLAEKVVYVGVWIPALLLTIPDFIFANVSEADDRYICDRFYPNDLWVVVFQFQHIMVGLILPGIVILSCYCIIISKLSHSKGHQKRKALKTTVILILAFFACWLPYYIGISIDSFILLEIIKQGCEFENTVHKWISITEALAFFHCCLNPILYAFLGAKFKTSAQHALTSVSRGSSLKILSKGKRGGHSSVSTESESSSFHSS

Q: For “Recombinant human stromal cell-derived factor-1 (SDF-1/CXCL12), intact (from UniProt P48061 22-93) (ligand)”, which CXCR4 internalization (loss of surface CXCR4 by flow cytometry) in THP-1 cells, 100 ng/mL SDF-1 for 15 minutes; uncut SDF-1, and SDF-1 pre-incubated with COAM 100x before protease at similar levels (% of receptor internalization) is on record?
A: The CXCR4 internalization (loss of surface CXCR4 by flow cytometry) in THP-1 cells, 100 ng/mL SDF-1 for 15 minutes; uncut SDF-1, and SDF-1 pre-incubated with COAM 100x before protease at similar levels (% of receptor internalization) was 25.
